Reference: US20060058224A1, “Methods of treating obesity with combination therapeutics” (priority 2004, published 2006)

B1: Axokine™: modified ciliary neurotrophic factor (CNTF) molecule, hCNTF C17A Q63R Δ15 (SEQ ID NO:3 or SEQ ID NO:4) (protein)
chain: MAFTEHSPLTPHRRDLASRSIWLARKIRSDLTALTESYVKHQGLNKNINLDSADGMPVASTDRWSELTEAERLQENLQAYRTFHVLLARLLEDQQVHFTPTEGDFHQAIHTLLLQVAAFAYQIEELMILLEYKIPRNEADGMPINVGDGGLFEKKLWGLKVLQELSQWTVRSIHDLRFISSHQTG

Assays:
[1] = test system: DIO (Diet-Induced Obesity; AKR/J mice fed a high fat diet) mice; experiment: Effect on body weight in a mouse model of obesity (DIO mice), daily treatment Day 0 to Day 21; format: in vivo; settings: Axokine 0.03 mg/kg SC, phentermine 10.0 mg/kg IP; for loss of starting body weight: after 21 days of daily treatment, control lost 2%; for body weight change in words (FIG. 1): daily administration
Experimental: FIG. 1 is a graph of the change in body weight as a percentage of weight at Day 0 from Day 0 to Day 21 food intake (24 hours) over time (Days —1 to 21) for diet-induced obese (DIO) mice treated with 0.9% NaCl (4 μl/g, intraperitoneal (IP) injection) and placebo (4 μl/g subcutaneous (SC) injection; Group A: Control ═X); Axokine™ (0.03 mg/kg, SC; Group B=⋄); phentermine (10.0 mg/kg, IP; Group C=□); Axokine™ (0.03 mg/kg, SC) and phentermine (10.0 mg/kg, IP; Group D=□); and pair fed to group B=⋄).
(§1) A study was conducted to determine the effect of the combination of phentermine and Axokine™ on body weight and food intake in a mouse model of obesity. 30 DIO (Diet-Induced Obesity; AKR/J mice fed a high fat diet) mice were divided into 5 equal groups (n=6 per group). Four groups were treated daily in the afternoon starting on Day 0 as follows: Group A (control): 0.9% NaCl (4 μl/g, intraperitoneal (IP) injection) and placebo (4 μl/g subcutaneous (SC) injection); Group B: Axokine™ (0.03 mg/kg, SC); Group C: phentermine (10.0 mg/kg, IP); Group D: Axokine™ (0.03 mg/kg, SC)+phentermine (10.0 mg/kg, IP). The […] group, Group E was pair fed to Group B; each animal in this group received the average amount of food the Axokine™ treated animals consumed the previous day. This treatment paradigm continued until Day 21 (last injection on Day 20). […] Animals who were pair-fed to the Axokine™ group, lost weight at a rate similar to that of the Axokine™ group up to Day 11 of the study. After this time, their weight loss reached a plateau.

[2] = test system: DIO (Diet-Induced Obesity; AKR/J mice fed a high fat diet) mice; experiment: 24 h food intake in DIO mice over the 21 day study; format: in vivo, mouse
Experimental: FIG. 2 is a graph of 24 h food intake monitored for the duration of the study for the DIO mice treated as described in the legend of FIG. 1.
as §1
After the second day of the study, control animals resumed their typical eating pattern, consuming approximately 4 g of food a day. Animals who received Axokine™ or were pair-fed, maintained this decreased food intake of about 2.75 g per day until Day 12 when they began to consume more food (3.5 g at the end of the study).

Molecule | loss of starting body weight [1] | body weight change in words (FIG. 1) [1] | food intake in words (FIG. 2) ([2]; daily treatment, Axokine 0.03 mg/kg SC, phentermine 10.0 mg/kg IP) | 24 h food intake at the end of the study ([2]; Axokine 0.03 mg/kg SC daily, end of the study (Day 21)) [g] | 24 h food intake ([2]; Axokine 0.03 mg/kg SC daily, from Day 2 until Day 12, control approximately 4 g a day)
CC(C)(N)Cc1ccccc1 [phentermine, reference compound] | about 15% | significant decrease in body weight relative to control animals | decreased food intake relative to control | – | –
B1 | approximately 19% | significant decrease in body weight relative to control animals | – | 3.5 | about 2.75 g per day
